Substitutions are numbered along the chain they refer to. In names and notes the source's numbering stands.
B1: Bt FAHD2A (Bos taurus) (protein)
chain: ATQLPVLPRSEVTFLAPVTRPDKVVCVGMNYADHCREQNVPVPKEPIIFSKFASAIVGPYDNIILPPESQEVDWEVELAVVIGKRGKYIKATDAMAHVAGFTVAHDVSARDWQMGRNGKQWLLGKTFDTFCPLGPALVTKDSVADPHNLKICCRVNGEVMQSSNTNQMVFKTEELITWVSQFVTLYPGDIILTGTPPGVGVFRKPPVFLKKGDEVQCEIEELGVIINKVV
B2: Hs FAHD2A (Homo sapiens) (protein)
chain: AAQLPVLPRSEVTFLAPVTRPDKVVCVGMNYVDHCKEQNVPVPKEPIIFSKFASSIVGPYDEVVLPPQSQEVDWEVELAVVIGKKGKHIKATDAMAHVAGFTVAHDVSARDWQMRRNGKQWLLGKTFDTFCPLGPALVTKDSVADPHNLKICCRVNGEVVQSGNTNQMVFKTEDLIAWVSQFVTFYPGDVILTGTPPGVGVFRKPPVFLKKGDEVQCEIEELGVIINKVV
B3: Hs FAHD2B (Homo sapiens) (protein)
chain: B2 chain with R9W, R20W, Q113L, M114T, G163S
B4: Bs YisK (Bacillus subtilis subsp. subtilis str. 168) (protein)
chain: MKFATGELYNRMFVGLIIDDEKIMDLQKAEKKLFELETIPGSLIECIAEGDKFVAHARQLAEWAKKPNDELGSFMYSLSEVKLHAPIPKPSKNIICIGKNYRDHAIEMGSEADIPEHPMVFTKSPVTVTGHGDIVKSHEEVTSQLDYEGELAVVIGKSGTRISKEDAYDHVFGYTIVNDITARDLQKRHKQFFIGKSLDTTCPMGPVLVHKSSIQEPERLKVETRVNGELRQSGSASDMIFSIPELIETLSKGMTLEAGDIIATGTPSGVGKGFTPPKFLRSGDKIDITIDPIGTLSNQIG
B5: Sc FMP41 (Saccharomyces cerevisiae S288C) (protein)
chain: MSYNYLKAARKIICIGRNYAAHIKELNNSTPKQPFFFLKPTSSIVTPLSSSLVKTTRPANSTFNGLNEDGTNPGPIFIPRGVKVHHEIELALIVSKHLSNVTKMKPEEVYDSISGVALALDLTARNVQDEAKKKGLPWTISKGFDTFMPISAIVSREKFSSYKSNLQDIFRVKCSVNGQLRQDGGTNLMLHPLHKILQHISTMISLEPGDIILTGTPAGVGELKPGDRVHCELLQNNDNIVDMNFECENRPGPYEFRET
B6: Hs FAHD1 (Homo sapiens) (protein)
chain: MGIMAASRPLSRFWEWGKNIVCVGRNYADHVREMRSAVLSEPVLFLKPSTAYAPEGSPILMPAYTRNLHHELELGVVMGKRCRAVPEAAAMDYVGGYALCLDMTARDVQDECKKKGLPWTLAKSFTASCPVSAFVPKEKIPDPHKLKLWLKVNGELRQEGETSSMIFSIPYIISYVSKIITLEEGDIILTGTPKGVGPVKENDEIEAGIHGLVSMTFKVEKPEY
B7: Ec YcgM (Escherichia coli K-12) (protein)
chain: MYQHHNWQGALLDYPVSKVVCVGSNYAKHIKEMGSAVPEEPVLFIKPETALCDLRQPLAIPSDFGSVHHEVELAVLIGATLRQATEEHVRKAIAGYGVALDLTLRDVQGKMKKAGQPWEKAKAFDNSCPLSGFIPAAEFTGDPQNTTLSLSVNGEQRQQGTTADMIHKIVPLIAYMSKFFTLKAGDVVLTGTPDGVGPLQSGDELTVTFDGHSLTTRVL

substrate: O=C(O)C=C(O)C(=O)O; test: purified protein; conditions: pH 7.5, 22 °C, 10 mM potassium phosphate, 0.3 mM NADH, malate dehydrogenase, OAA added in dry acetone

| Molecule | Km | Vmax | kcat | kcat/Km |
| --- | --- | --- | --- | --- |
| B1 | 20.2 ± 1.4 µM | 53.5 µmol/min/mg | 32.7 s⁻¹ | 1.63e+06 M⁻¹ s⁻¹ |
| B2 | 22.2 ± 3.6 µM | 22.2 µmol/min/mg | 13.6 s⁻¹ | 628000 M⁻¹ s⁻¹ |
| B3 | 296 ± 12 µM | 112 µmol/min/mg | 68.7 s⁻¹ | 232000 M⁻¹ s⁻¹ |
| B4 | 43.8 ± 8.1 µM | 402 µmol/min/mg | 237 s⁻¹ | 5.81e+06 M⁻¹ s⁻¹ |
| B5 | 219 ± 23 µM | 717 µmol/min/mg | 369 s⁻¹ | 1.75e+06 M⁻¹ s⁻¹ |
| B6 | 15.8 ± 5.9 µM | 69 µmol/min/mg | 31.1 s⁻¹ | 1.99e+06 M⁻¹ s⁻¹ |
| B7 | 26.9 ± 0.4 µM | 372 µmol/min/mg | 161 s⁻¹ | 5.95e+06 M⁻¹ s⁻¹ |

target: T1, bovine succinate dehydrogenase (SDH) (Bos taurus, UniProt P31039); test: DCIP reduction at […] nm; format: biochemical; conditions: 2 mM malate, 0.1 mM decylubiquinone, GOT and glutamate, pH 7.1, 22 °C; product enol-OAA
T1 construct: gene SDHA; native complex II, dodecyl-maltoside-solubilized and enriched from bovine heart submitochondrial particles; with Succinate dehydrogenase [ubiquinone] iron-sulfur subunit, mitochondrial; Succinate dehydrogenase cytochrome b560 subunit, mitochondrial; Succinate dehydrogenase [ubiquinone] cytochrome b small subunit, mitochondrial
T1 sequence (P31039 44-665): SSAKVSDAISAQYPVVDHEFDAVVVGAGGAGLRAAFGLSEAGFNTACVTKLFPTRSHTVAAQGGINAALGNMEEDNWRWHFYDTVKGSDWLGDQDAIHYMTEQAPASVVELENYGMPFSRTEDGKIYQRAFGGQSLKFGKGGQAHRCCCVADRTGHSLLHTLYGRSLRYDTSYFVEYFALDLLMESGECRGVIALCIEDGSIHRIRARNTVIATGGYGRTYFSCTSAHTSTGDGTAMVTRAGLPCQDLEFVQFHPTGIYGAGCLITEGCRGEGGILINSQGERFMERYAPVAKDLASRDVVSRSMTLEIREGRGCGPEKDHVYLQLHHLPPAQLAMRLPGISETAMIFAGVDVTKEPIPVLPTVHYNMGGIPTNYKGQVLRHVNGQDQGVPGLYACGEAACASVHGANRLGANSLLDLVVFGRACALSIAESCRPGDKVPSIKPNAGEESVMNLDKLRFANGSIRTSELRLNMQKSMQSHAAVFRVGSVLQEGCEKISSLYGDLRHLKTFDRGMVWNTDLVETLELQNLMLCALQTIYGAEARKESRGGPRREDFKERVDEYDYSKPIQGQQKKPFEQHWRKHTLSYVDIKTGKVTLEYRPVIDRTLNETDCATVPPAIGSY
T1 sequence (Q3T189 29-280 partner): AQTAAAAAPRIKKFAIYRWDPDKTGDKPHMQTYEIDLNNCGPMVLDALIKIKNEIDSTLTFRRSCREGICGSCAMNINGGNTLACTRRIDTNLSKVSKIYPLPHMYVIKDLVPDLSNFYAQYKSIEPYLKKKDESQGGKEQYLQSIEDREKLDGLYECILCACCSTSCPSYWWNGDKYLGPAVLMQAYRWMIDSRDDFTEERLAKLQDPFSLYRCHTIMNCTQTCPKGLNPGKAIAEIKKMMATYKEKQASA
T1 sequence (P35720 30-169 partner): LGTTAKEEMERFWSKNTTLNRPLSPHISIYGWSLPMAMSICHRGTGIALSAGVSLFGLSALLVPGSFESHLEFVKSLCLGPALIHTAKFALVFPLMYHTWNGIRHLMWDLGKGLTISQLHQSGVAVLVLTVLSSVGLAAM
T1 sequence (Q95123 56-158 partner): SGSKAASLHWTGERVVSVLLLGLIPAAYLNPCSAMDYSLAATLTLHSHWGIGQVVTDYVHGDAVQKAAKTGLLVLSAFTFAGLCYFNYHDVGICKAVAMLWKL

| Molecule | DCIP reduction at 600 nm |
| --- | --- |
| O=C(O)C[C@H](O)C(=O)O [malate] | These results confirm that malate oxidation by SDH forms enol-OAA |
